This note sets out measurements from publication doi:10.1101/2023.09.07.556688 (bioRxiv, 2023).

Data set [1] concerns the molecule itself. Nature of the data set: cryo-EM structure.
Data set [2] concerns the molecule itself. Nature of the data set: negative-stain EM.

B1: Arabidopsis thaliana Delta-1-pyrroline-5-carboxylate synthase 2 (atP5CS2), wild type (enzyme, UniProt P54888 1-726, looked up)
chain: MTEIDRSRAFAKDVKRIVVKVGTAVVTGKGGRLALGRLGAICEQLAELNSDGFEVILVSSGAVGLGRQRLRYRQLVNSSFADLQKPQMELDGKACAGVGQSSLMAYYETMFDQLDVTVAQMLVTDSSFRDKDFRKQLSETVKAMLRMRVIPVFNENDAISTRRAPYKDSTGIFWDNDSLAALLSLELKADLLILLSDVEGLYTGPPSDSTSKLIHTFIKEKHQDEITFGEKSKLGRGGMTAKVKAAVNAAYGGVPVIITSGYAAENISKVLRGLRVGTLFHQDAHLWAPVVDTTSRDMAVAARESSRKLQALSSEDRKQILHDIANALEVNEKTIKAENDLDVAAAQEAGYEESLVARLVMKPGKISSLAASVRQLAEMEDPIGRVLKKTQVADDLILEKTSSPIGVLLIVFESRPDALVQIASLAIRSGNGLLLKGGKEARRSNAILHKVITDAIPETVGGKLIGLVTSREEIPDLLKLDDVIDLVIPRGSNKLVSQIKNSTKIPVLGHADGICHVYVDKSGKLDMAKRIVSDAKLDYPAACNAMETLLVHKDLEQNGFLDDLIYVLQTKGVTLYGGPRASAKLNIPETKSFHHEYSSKACTVEIVEDVYGAIDHIHQHGSAHTDCIVTEDSEVAEIFLRQVDSAAVFHNASTRFSDGFRFGLGAEVGISTSRIHARGPVGVEGLLTTRWIMRGKGQVVDGDNGIVYTHKDLPVLQRTEAVENGI
B1: the “stoichiometry N” value in data set [1] was 4.

B2: truncated atP5CS2 protein consisting of residues 1-290 (atP5CS2-GK) (domain or fragment, Arabidopsis thaliana, UniProt P54888 1-290, looked up)
chain: MTEIDRSRAFAKDVKRIVVKVGTAVVTGKGGRLALGRLGAICEQLAELNSDGFEVILVSSGAVGLGRQRLRYRQLVNSSFADLQKPQMELDGKACAGVGQSSLMAYYETMFDQLDVTVAQMLVTDSSFRDKDFRKQLSETVKAMLRMRVIPVFNENDAISTRRAPYKDSTGIFWDNDSLAALLSLELKADLLILLSDVEGLYTGPPSDSTSKLIHTFIKEKHQDEITFGEKSKLGRGGMTAKVKAAVNAAYGGVPVIITSGYAAENISKVLRGLRVGTLFHQDAHLWAPV
In the case of B2, the binding result in data set [2] is recorded as “binds”.

Usually stoichiometry N stands for the number of molecules, sites or subunits per partner or assembly.
